Data reported in the supplement of paper PMC7125110.
± gives the standard error. Variants at the floor of the assay were thinned out.

B1: glmS ribozyme (parent)
chain: AUAAAAGCGCCAGAACUACAGAAAUGUAGUUGACGAGGAGGAGGUUUAUCGAAUUUUCGGCGGAUGCCUCCAAA

What was measured:
Conditions in all cases: with glucosamine-6-phosphate
glucosamine-6-phosphate [1] = variants of: B1; experiment: self-cleavage kobs at 160 uM GlcN6P; higher = faster cleavage; RNA array
Procedure, shortened: (§1)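 The measurements used barcoded ribozyme variants on sequenced MiSeq chips, transcribed in situ by E. coli RNA polymerase and tracked at 37 °C with a hybridised Cy3 probe. Glucosamine-6-phosphate, 40 μM to 10 mM in HEPES/KCl/Mg(OAc)2 buffer, was flowed in while tiles were imaged over ~14 h. Baseline-normalised signals, also normalised to non-cleaving reference variants, gave per-tile medians that were fit to one- or two-exponential decays for kobs. kcat and KM resulted from weighted Michaelis–Menten fits across concentrations.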

glucosamine-6-phosphate [2] = variants of: B1; experiment: self-cleavage kobs at 2500 uM GlcN6P; higher = faster cleavage; RNA array
Procedure, shortened: as §1

glucosamine-6-phosphate [3] = variants of: B1; experiment: self-cleavage kobs at 10000 uM GlcN6P; higher = faster cleavage; RNA array
Procedure, shortened: as §1

glucosamine-6-phosphate [4] = variants of: B1; experiment: self-cleavage kobs at 640 uM GlcN6P; higher = faster cleavage; RNA array
Procedure, shortened: as §1

Variant	self-cleavage kobs at 160 uM GlcN6P (glucosamine-6-phosphate [1]) [s⁻¹]	self-cleavage kobs at 2500 uM GlcN6P (glucosamine-6-phosphate [2]) [s⁻¹]	self-cleavage kobs at 10000 uM GlcN6P (glucosamine-6-phosphate [3]) [s⁻¹]	self-cleavage kobs at 640 uM GlcN6P (glucosamine-6-phosphate [4]) [s⁻¹]
G35A G62U	< 1e-05	< 1e-05	< 1e-05	
G35A G62C	< 1e-05	< 1e-05		< 1e-05
G41A U55G C71A	5.4e-05 ± 1.6e-05	0.000196 ± 3.5e-05		8.59e-05 ± 2.3e-05
G38C A42C	< 1e-05	< 1e-05	< 1e-05	< 1e-05
A33C G59A	< 1e-05	< 1e-05		< 1e-05
A36U G40U	< 1e-05		< 1e-05	< 1e-05
G41U G59A	< 1e-05	< 1e-05		< 1e-05
A39U U54C G62C	< 1e-05	< 1e-05		< 1e-05
G38U A42G	< 1e-05			< 1e-05
G38U A42U	< 1e-05		< 1e-05	< 1e-05
G35U C61U	< 1e-05	< 1e-05		< 1e-05
G35U A53U G60U	< 1e-05			< 1e-05
G38C A39G	< 1e-05			< 1e-05
A33G A53C G59A	< 1e-05	< 1e-05	< 1e-05	
G37A G60A G66U	< 1e-05			
A42C G62C G63U U69A	< 1e-05	< 1e-05		
G35A G41U A48G	< 1e-05	< 1e-05		
A36U U49G A52C	< 1e-05			
C34A A36G A39U A48C	< 1e-05	< 1e-05		
G32U U45G C70A	< 1e-05			< 1e-05
A36C G38C U56C	< 1e-05	< 1e-05		
A36U A48G	< 1e-05		< 1e-05	< 1e-05
A36C G37A U46A G66U	< 1e-05	< 1e-05		< 1e-05
G40U G43C C68G	0.000486 ± 0.00015	0.00105 ± 0.00026		0.000552 ± 0.00012
A36U A64G C68G	7.51e-05 ± 3e-05			
C34U U56C	< 1e-05	< 1e-05	< 1e-05	< 1e-05

Variant	self-cleavage kobs at 160 uM GlcN6P (glucosamine-6-phosphate [1]) [s⁻¹]	self-cleavage kobs at 2500 uM GlcN6P (glucosamine-6-phosphate [2]) [s⁻¹]	self-cleavage kobs at 10000 uM GlcN6P (glucosamine-6-phosphate [3]) [s⁻¹]	self-cleavage kobs at 640 uM GlcN6P (glucosamine-6-phosphate [4]) [s⁻¹]
C34U U56G	< 1e-05	< 1e-05		
G38U G43A C58G U65C	< 1e-05			
A39G U46G A53C	5.35e-05 ± 2.3e-05			0.000315 ± 0.00012
G38C U54G	< 1e-05		< 1e-05	< 1e-05
C34G G40U G41A C58U	< 1e-05			< 1e-05
G35U A64U	< 1e-05	< 1e-05	< 1e-05	< 1e-05
A39U A42G G60U	< 1e-05			< 1e-05
C34U U45C U65A	< 1e-05			< 1e-05
G40A A48G C50G	< 1e-05	< 1e-05		
A33G C67G C70A	4.49e-05 ± 2.2e-05			
G41C A52C G60A G63A G66A C68U	< 1e-05			< 1e-05
G35C C50A G51U A52C	< 1e-05			< 1e-05
G40A A42C A48G	< 1e-05	< 1e-05	< 1e-05	< 1e-05
A33C U56C	< 1e-05	< 1e-05	< 1e-05	< 1e-05
G38C G62U	< 1e-05	< 1e-05	< 1e-05	
G35A C58G	< 1e-05	< 1e-05		
G35U G51A	< 1e-05		< 1e-05	< 1e-05
G37A A39U U54C	8.28e-05 ± 3.4e-05	0.000423 ± 6.7e-05		0.00016 ± 1.9e-05
G35U C71U	< 1e-05	< 1e-05	< 1e-05	< 1e-05
G43A G60C	< 1e-05	< 1e-05	< 1e-05	< 1e-05
G35C G40C A52C	< 1e-05	< 1e-05		< 1e-05
G41U U69G	< 1e-05	< 1e-05	< 1e-05	< 1e-05
G43A U56A U57A C61U	< 1e-05			
C34U U56C G66C	< 1e-05	< 1e-05		
A39G G62A	< 1e-05	< 1e-05	< 1e-05	
A36G G38C A42U G62A C67U C68A U69G	< 1e-05			

Variant	self-cleavage kobs at 160 uM GlcN6P (glucosamine-6-phosphate [1]) [s⁻¹]	self-cleavage kobs at 2500 uM GlcN6P (glucosamine-6-phosphate [2]) [s⁻¹]	self-cleavage kobs at 10000 uM GlcN6P (glucosamine-6-phosphate [3]) [s⁻¹]	self-cleavage kobs at 640 uM GlcN6P (glucosamine-6-phosphate [4]) [s⁻¹]
A36U U46A	< 1e-05	< 1e-05	< 1e-05	< 1e-05
C34G A36C G38U A64C	< 1e-05			
G43C C67U	< 1e-05	< 1e-05		
G43C U55A A64U	< 1e-05			
G37C G43C A52C	< 1e-05	< 1e-05		
A39C G60C	< 1e-05		< 1e-05	
A36U U65C	< 1e-05			
A39G C58U G63U	< 1e-05			< 1e-05
C34U C50G C68A	9.29e-05 ± 2.9e-05	9.73e-05 ± 2.8e-05		
G44U C61A C67U C70G	< 1e-05	< 1e-05		< 1e-05
A33C G59C C61G A64G	< 1e-05			< 1e-05
A33G A39U A64U C70G	< 1e-05	< 1e-05		
G32U G60U	< 1e-05	< 1e-05		< 1e-05
G35U G41A A48G C58G	< 1e-05			
A36U U45A	< 1e-05			< 1e-05
A36C A39G C68U	< 1e-05			< 1e-05
G40C U69A	< 1e-05	< 1e-05		
A33G A42U G59U	< 1e-05			
A33U G38A A48G G66U U69G	4.81e-05 ± 1.6e-05			0.000108 ± 2.9e-05
C34G U47A	< 1e-05	< 1e-05		< 1e-05
C34U C67U	< 1e-05	< 1e-05		
C34U C67A	< 1e-05	< 1e-05		
C34U G43U C50A G51U U55G	< 1e-05			
A36G A64U C71U	< 1e-05	< 1e-05		< 1e-05
G38A C61U C70G	< 1e-05			
G43A U65C	< 1e-05	< 1e-05		< 1e-05

Variant	self-cleavage kobs at 160 uM GlcN6P (glucosamine-6-phosphate [1]) [s⁻¹]	self-cleavage kobs at 2500 uM GlcN6P (glucosamine-6-phosphate [2]) [s⁻¹]	self-cleavage kobs at 10000 uM GlcN6P (glucosamine-6-phosphate [3]) [s⁻¹]	self-cleavage kobs at 640 uM GlcN6P (glucosamine-6-phosphate [4]) [s⁻¹]
G35C G60U G62C	< 1e-05			< 1e-05
G43A G44A	< 1e-05	< 1e-05	< 1e-05	< 1e-05
G41U U45C G59U	< 1e-05	< 1e-05		< 1e-05
G41U C68U U69C	< 1e-05	< 1e-05		< 1e-05
A33U C50U G62C	< 1e-05	< 1e-05		< 1e-05
G37A G38A	< 1e-05	< 1e-05	< 1e-05	< 1e-05
G38U G60C	< 1e-05			< 1e-05
G35C G60A C68A	< 1e-05			< 1e-05
A33C C34G G40U A48U C61A	< 1e-05	< 1e-05		< 1e-05
A42C A53C	< 1e-05			< 1e-05
A39G A52U C61G A64C	< 1e-05	< 1e-05		< 1e-05
C34A A42U	< 1e-05	< 1e-05	< 1e-05	< 1e-05
G35U A42C U55C	< 1e-05			< 1e-05
A33C U45G U55C U57C A64U	< 1e-05	< 1e-05		< 1e-05
G35C G62U	< 1e-05	< 1e-05	< 1e-05	< 1e-05
G35U U45G U46G A64G	< 1e-05	< 1e-05		< 1e-05
G35U C67A	< 1e-05	< 1e-05		< 1e-05
G35U A39U	< 1e-05	< 1e-05		< 1e-05
G41A G51U	< 1e-05	< 1e-05	< 1e-05	< 1e-05
G35C A39U U49G C50G	< 1e-05	< 1e-05		
G35A A48G G51C A64C	< 1e-05			
A33C G35A	< 1e-05	< 1e-05	< 1e-05	< 1e-05
A39C G51C U55A	< 1e-05	< 1e-05		
G35U G43U A53C C70A	< 1e-05			
